{
  "source": "paper PMC3543382",
  "about": "“Elements of Transcriptional Machinery Are Compatible among Plants and Mammals” (PLoS ONE, 2013)",
  "binders": {"B1": {"name": "IκB-EYFP (natural protein, human, UniProt P25963 1-317, looked up)", "chain": "MFQAAERPQEWAMEGPRDGLKKERLLDDRHDSGLDSMKDEEYEQMVKELQEIRLEPQEVPRGSEPWKQQLTEDGDSFLHLAIIHEEKALTMEVIRQVKGDLAFLNFQNNLQQTPLHLAVITNQPEIAEALLGAGCDPELRDFRGNTPLHLACEQGCLASVGVLTQSCTTPHLHSILKATNYNGHTCLHLASIHGYLGIVELLVSLGADVNAQEPCNGRTALHLAVDLQNPDLVSLLLKCGADVNRVTYQGYSPYQLTWGRPSTRIQQQLGQLTLENLQMLPESEDEESYDTESEFTEFTEDELPYDDCVFGGQRLTL"}},
  "target": "RelA-ECFP (human, UniProt Q04206 1-551)",
  "sequence (Q04206 whole entry)": "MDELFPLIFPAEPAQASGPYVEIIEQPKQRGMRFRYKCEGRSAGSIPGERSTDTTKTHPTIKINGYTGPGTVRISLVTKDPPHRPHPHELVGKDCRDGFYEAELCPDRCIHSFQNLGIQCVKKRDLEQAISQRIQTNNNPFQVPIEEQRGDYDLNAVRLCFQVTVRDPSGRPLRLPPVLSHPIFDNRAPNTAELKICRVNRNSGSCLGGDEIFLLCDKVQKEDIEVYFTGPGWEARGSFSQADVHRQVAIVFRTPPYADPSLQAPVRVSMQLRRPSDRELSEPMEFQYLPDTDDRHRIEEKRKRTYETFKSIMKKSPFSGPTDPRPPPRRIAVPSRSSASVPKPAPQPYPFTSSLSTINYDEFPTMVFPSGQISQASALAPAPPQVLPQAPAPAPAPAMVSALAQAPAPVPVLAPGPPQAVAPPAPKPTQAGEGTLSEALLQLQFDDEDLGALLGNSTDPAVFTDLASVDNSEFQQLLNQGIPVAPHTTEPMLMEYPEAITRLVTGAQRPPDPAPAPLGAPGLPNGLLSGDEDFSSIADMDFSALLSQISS",
  "test": "cell-based or functional assay",
  "data": [
    {"binder": "B1", "values": [
      {"measurement": "transactivation of the IκBα-promoter EYFP reporter by the p50/RelA heterodimer in the presence of IκB (untagged proteins) in Arabidopsis protoplasts, EYFP/ECFP emission relative to the basal activity", "value": 3.5, "unit": "fold"}
    ]}
  ]
}
